Legend:
[1] = target: human serum albumin (human) (UniProt P02768); test: primary ELISA screen, HSA negative control
[2] = target: human serum albumin (human) (UniProt P02768); test: primary ELISA of colonies, luminescence; negative control antigen

Chain of human serum albumin (human) (P02768 25-609 limits assumed): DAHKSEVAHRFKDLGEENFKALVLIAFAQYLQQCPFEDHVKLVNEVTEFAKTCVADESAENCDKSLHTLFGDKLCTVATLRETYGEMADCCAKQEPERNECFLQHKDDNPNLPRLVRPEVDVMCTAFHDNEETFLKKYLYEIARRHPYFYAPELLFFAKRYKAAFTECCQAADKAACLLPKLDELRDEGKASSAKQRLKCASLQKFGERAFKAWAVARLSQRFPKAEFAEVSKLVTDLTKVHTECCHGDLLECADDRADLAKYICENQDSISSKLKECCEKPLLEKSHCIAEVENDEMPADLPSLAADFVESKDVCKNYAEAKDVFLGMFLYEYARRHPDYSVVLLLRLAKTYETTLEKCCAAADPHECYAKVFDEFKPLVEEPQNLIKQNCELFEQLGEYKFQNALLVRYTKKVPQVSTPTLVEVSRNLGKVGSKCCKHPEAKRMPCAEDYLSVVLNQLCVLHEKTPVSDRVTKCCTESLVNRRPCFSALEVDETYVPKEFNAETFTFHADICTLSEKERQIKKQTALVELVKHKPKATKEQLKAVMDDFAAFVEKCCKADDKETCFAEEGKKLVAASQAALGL

Row | Binder | RLU [1] [RLU] | HSA, RLU [2] [RLU]
1 | CD71-binding FN3 domain of SEQ ID NO: 335 (designed binder, not shown: small tags and cut ends) MSLPAPKNLVVSRVTEDSARLSWTAPDAAFDSFFIGYLEPQPPGEAIDLYVPGSERSYDLTGLKPGTEYNVTIQGVKGGFPSLPLVATFTT | 57300 | 
2 | CD71-binding FN3 domain of SEQ ID NO: 341 (designed binder, not shown: small tags and cut ends) MSLPAPKNLVVSRVTEDSARLSWTAPDAAFDSFFIGYLEPQPPGEAIELYVPGSERSYDLTGLKPGTEYNVTIQGVKGGFPSLPLVAIFTT | 58000 | 
3 | CD71-binding FN3 domain of SEQ ID NO: 342 (designed binder, not shown: small tags and cut ends) MSLPAPKNLVVSRVTEDSARLSWTAPDAAFDSFFIGYLEPQPPGEAIVLTVPGSERSYDLTGLKPGTEYNVTIQGVKGGFPSEPLIANFTT | 425000 | 
4 | CD71-binding FN3 domain of SEQ ID NO: 337 (designed binder, not shown: small tags and cut ends) MSLPAPKNLVVSRVTEDSARLSWTAPDAAFDSFFIGYLEPQPPGEAIHLYVPGSERSYDLTGLKPGTEYNVTIQGVKGGFPSIPLIASFTT | 17200 | 
5 | CD71-binding FN3 domain of SEQ ID NO: 343 (designed binder, not shown: small tags and cut ends) MSLPAPKNLVVSRVTEDSARLSWTAPDAAFDSFFIGYLEPQPPGEAIALWVPGSERSYDLTGLKPGTEYNVTIQGVKGGFPSEPLVATFTT | 30400 | 
6 | CD71-binding FN3 domain of SEQ ID NO: 336 (designed binder, not shown: small tags and cut ends) MSLPAPKNLVVSRVTEDSARLSWTAPDAAFDSFNIMYHEHYDNGEAIVLTVPGSERSYDLTGLKPGTEYSVVINGVKGGPHSAPLSAIFTT | 16800 | 
7 | CD71-binding FN3 domain of SEQ ID NO: 106 (designed binder, not shown: small tags and cut ends) MLPAPKNLVVSRVTEDSARLSWTAPDAVFDSFYIAYAEPRPDGEAIGLYVPGSERSYDLTGLKPGTEYSVLIHGVKGGLLSSPLTASFTT |  | 2550
8 | CD71-binding FN3 domain of SEQ ID NO: 108 (designed binder, not shown: small tags and cut ends) MLPAPKNLVVSRVTEDSARLSWTAPDAAFDSFYIAYAEPRPDGEAILLQVPGSERSYDLTGLKPGTEYSVLIHGVKGGLLSSPLVAKFTT |  | 3350
9 | CD71-binding FN3 domain of SEQ ID NO: 116 (designed binder, not shown: small tags and cut ends) MLPAPKNLVVSRVTEDSARLSWTAPDAAFDSFYIAYAEPRPDGEAILLLVPGSERSYDLTGLKPGTEYSVLIHGVKGGLLSSPLIAGFTT |  | 2750
10 | CD71-binding FN3 domain of SEQ ID NO: 338 (designed binder, not shown: small tags and cut ends) MSLPAPKNLVVSRVTEDSARLSWTAPDAAFDSFEIGYFENLYLGEAIVLTVPGSERSYDLTGLKPGTEYCVYICGVKGGRDSMPLSAIFTT | 40200 | 
11 | CD71-binding FN3 domain of SEQ ID NO: 339 (designed binder, not shown: small tags and cut ends) MSLPAPKNLVVSRVTEDSARLSWTAPDAAFDSFEIGYWEMSYYGEAIVLTVPGSERSYDLTGLKPGTEYGVSIGGVKGGRWSLPLSAIFTT | 7050 | 
12 | CD71-binding FN3 domain of SEQ ID NO: 340 (designed binder, not shown: small tags and cut ends) MSLPAPKNLVVSRVTEDSSRLSWTAPDAAFDSFEIGYFENLYLGEAIVLTVPGSERSYDLTGLKPGTEYWVQIGGVKGGNWSAPLSAIFTT | 28300 | 
13 | CD71-binding FN3 domain of SEQ ID NO: 345 (designed binder, not shown: small tags and cut ends) MSLPAPKNLVVSRVTEDSAHLSWTAPDAAFDSFEIGYFENDYFGEAIVLTVPGSERSYDLTGLKPGTEYVVFIGGVKGGKWSAPLSAIFTT | 23600 | 
14 | CD71-binding FN3 domain of SEQ ID NO: 344 (designed binder, not shown: small tags and cut ends) MSLPAPKNLFVSRVTEDSARLSWTAPDAAFDSFEIGYWENAYKGEAIVLTVPGSERSYDLTGLKPGTEYWVQIGGVKGGNWSAPLSAIFTT | 36900 | 
15 | CD71-binding FN3 domain of SEQ ID NO: 107 (designed binder, not shown: small tags and cut ends) MLPAPKNLVVSRVTEDSARLSWTAPDAAFDSFFIGYLEPQPPGEAIGLQVPGSERSYDLTGLKPGTEYNVTIQGVKGGFPSMPLSAIFTT |  | 3250
16 | CD71-binding FN3 domain of SEQ ID NO: 113 (designed binder, not shown: small tags and cut ends) MLPAPKNLVVSRVTEDSARLSWTAPDAAFDSFFIGYLEPQPPGEAIYLLVPGSERSYDLTGLKPGTEYNVTIQGVKGGFPSDPLSAIFTT |  | 2800
17 | CD71-binding FN3 domain of SEQ ID NO: 115 (designed binder, not shown: small tags and cut ends) MLPAPKNLVVSRVTEDSARLSWTAPDAAFDSFFIGYLEPQPPGEAIDLYVPGSERSYDLTGLKPGIEYNVTIQGVKGGFPSLPLQAHFTT |  | 5200
18 | CD71-binding FN3 domain of SEQ ID NO: 112 (designed binder, not shown: small tags and cut ends) MLPAPKNLVVSRVTEDSARLSWTAPDAAFDSFFIGYLEPQPPGEAIDLWVPGSERSYDLTGLKPGTEYNVTIQGVKGGFPSMPLSAIFTT |  | 2650
19 | CD71-binding FN3 domain of SEQ ID NO: 111 (designed binder, not shown: small tags and cut ends) MLPAPKNLVVSRVTEDSARLSWTAPDAAFDSFFIGYLEPQPPGEAISLWVPGSERSYDLTGLKPGTEYNVTIQGVKGGFPSIPLWAIFTT |  | 2600
20 | CD71-binding FN3 domain of SEQ ID NO: 109 (designed binder, not shown: small tags and cut ends) MLPAPKNLVVSRVTEDSARLSWTAPDAAFDSFFIGYLEPQPPGEAIILHVPGSERSYDLTGLKPGTEYNVTIQGVKGGFPSLPLNANFTT |  | 3250
21 | CD71-binding FN3 domain of SEQ ID NO: 110 (designed binder, not shown: small tags and cut ends) MLPAPKNLVVSRVTEDSARLSWTAPDAAFDSFHIVYHEPRPSGEAIYLEVPGSERSYDLTGLKPGTEYEVGIVSVKGGDLSVPLRAHFTT |  | 2500
22 | CD71-binding FN3 domain of SEQ ID NO: 114 (designed binder, not shown: small tags and cut ends) MLPAPKNLVVSRVTEDSARLSWTAPDAAFDSFHIVYHEPRPSGEAIWLFVPGSERSYDLTGLKPGTEYEVGIVSVKGGDLSVPLSAIFTT |  | 11600
23 | CD71-binding FN3 domain of SEQ ID NO: 334 (designed binder, not shown: small tags and cut ends) MSLPAPKNLVVSRVTEDSARLSWTAPDAAFDSFEIAYQELSLWGEAIVLTVPGSERSYDLTGLKPGTEYWVQIGGVKGGIWSSPLVASFTT | 14400 | 
